Source: PMC314469, “Protein Interaction Networks by Proteome Peptide Scanning” (PLoS Biology, 2004)

T1: Boi1 SH3 (BOI1_YEAST), P38041
T1 chain: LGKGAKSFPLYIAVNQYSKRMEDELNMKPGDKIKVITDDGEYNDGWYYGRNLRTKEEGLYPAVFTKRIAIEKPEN

T2: Boi2 SH3 (BOI2_YEAST), P39969
T2 chain: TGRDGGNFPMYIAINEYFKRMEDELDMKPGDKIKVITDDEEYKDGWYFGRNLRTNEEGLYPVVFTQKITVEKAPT

T3: Rvs167 SH3 (RV167_YEAST), P39743
T3 chain: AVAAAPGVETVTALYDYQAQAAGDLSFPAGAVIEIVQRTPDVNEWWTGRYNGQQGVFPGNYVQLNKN

T4: Yfr024 SH3 (LSB3_YEAST), P43603
T4 chain: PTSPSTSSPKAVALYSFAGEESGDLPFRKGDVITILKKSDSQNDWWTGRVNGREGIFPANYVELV

T5: Yhr016c SH3 (YSC84_YEAST), P32793
T5 chain: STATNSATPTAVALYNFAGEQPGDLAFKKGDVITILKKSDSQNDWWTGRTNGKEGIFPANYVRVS

B1: YER036C 368-381 (peptide)
chain: LVQPVVPDKVFSFR
B2: YHR086W 128-141 (peptide)
chain: MLIPNFPNKKLKLN
B3: YJR064W 272-285 (peptide)
chain: LTSPFEPPKPKTKH
B4: YPL084W 790-803 (peptide)
chain: MAAPPVPPKQSQED
B5: YJL020C 1-14 (peptide)
chain: MSEPEVPFKVVAQF
B6: YDL031W 923-936 (peptide)
chain: MKAPKMPDKHRDNY
B7: YOR255W 1-14 (peptide)
chain: MRAPPSPRKSKSGH
B8: YKR066C 186-199 (peptide)
chain: MQGPKIPWRSGRVD
B9: YNL040W 1-14 (peptide)
chain: MPTPMTPVKVGALA
B10: YER032W 50-63 (peptide)
chain: MSLPVTPVKSKVSS
B11: YDR177W 60-73 (peptide)
chain: MEYPFKPPKMQFDT
B12: YDL129W 13-26 (peptide)
chain: LVTPEEPAKNKSER
B13: YOR337W 1-14 (peptide)
chain: MTAPLWPNKNEKNH
B14: YLR178C 93-106 (peptide)
chain: MTDPDAPSKTDHKW
B15: YGR227W 189-202 (peptide)
chain: LTLPFGPVKSIWLS
B16: YDR172W 569-582 (peptide)
chain: LTSPKNPIKSVTKF
B17: YLR301W 128-141 (peptide)
chain: LWQPVDPSREDLVI
B18: YOR315W 23-36 (peptide)
chain: LVIPSTPSKKSKYS
B19: YHL002W 144-157 (peptide)
chain: LVQPNVPEKHNMST
B20: YCL009C 276-289 (peptide)
chain: MALPRTPLKTSTEE
B21: YJR152W 267-280 (peptide)
chain: LWIPDDPSKARFLS
B22: YNL045W 494-507 (peptide)
chain: LYKPGMPPRPHFIT

Target: T1, Boi1 SH3 (BOI1_YEAST), P38041
Assay: SPOT array

normalised SPOT signal, Boehringer light units (BLU); mean over the file's lines of this peptide	Binder
124	B1
34.7	B2
188	B3
84.2	B4
74.2	B5
163	B6
81.1	B7
2850	B8
13.5	B9
0.6	B10
56.3	B11
126	B12
32.9	B13
-0	B14
5.9	B15
547	B16
49.2	B17
94.8	B18
52.4	B19
100	B20
63.1	B21
25.6	B22

Target: T2, Boi2 SH3 (BOI2_YEAST), P39969
Assay: SPOT array

normalised SPOT signal, Boehringer light units (BLU); mean over the file's lines of this peptide	Binder
52	B1
59.7	B2
33.7	B3
40.6	B4
64.8	B5
162	B6
168	B7
651	B8
55	B9
37.9	B10
55.1	B11
74.6	B12
25.8	B13
34.4	B14
41.5	B15
25.9	B16
51.5	B17
37.5	B18
48.3	B19
101	B20
25.2	B21
60.6	B22

Target: T3, Rvs167 SH3 (RV167_YEAST), P39743
Assay: SPOT array

normalised SPOT signal, Boehringer light units (BLU); mean over the file's lines of this peptide	Binder
63.5	B1
70.8	B2
8.1	B3
52.4	B4
19.9	B5
331	B6
261	B7
1270	B8
11	B9
111	B10
68.7	B11
78.8	B12
55.3	B13
32.5	B14
17.2	B15
96.1	B16
0.8	B17
32.2	B18
44.1	B19
338	B20
36.6	B21
34.7	B22

Target: T4, Yfr024 SH3 (LSB3_YEAST), P43603
Assay: SPOT array

normalised SPOT signal, Boehringer light units (BLU); mean over the file's lines of this peptide	Binder
311	B1
1090	B2
82.2	B3
4570	B4
48.9	B5
1760	B6
1240	B7
15900	B8
288	B9
2120	B10
483	B11
49.1	B12
109	B13
56.6	B14
36.6	B15
227	B16
179	B17
627	B18
94.6	B19
1130	B20
561	B21
899	B22

Target: T5, Yhr016c SH3 (YSC84_YEAST), P32793
Assay: SPOT array

normalised SPOT signal, Boehringer light units (BLU); mean over the file's lines of this peptide	Binder
370	B1
423	B2
149	B3
279	B4
105	B5
399	B6
1100	B7
13800	B8
66.7	B9
257	B10
178	B11
69.6	B12
257	B13
109	B14
297	B15
40.3	B16
139	B17
95.7	B18
107	B19
280	B20
200	B21
326	B22
